We go through 2 proteins from publication doi:10.1101/2020.01.14.905984 (bioRxiv, 2020).

The series “SEC” concerns the molecule itself. Briefly: SEC.
The series “crystal structure” deals with the molecule itself. Briefly: crystal structure.

B1: CHUP1_611-1004 (CHUP1-C), C-terminal fragment of CHLOROPLAST UNUSUAL POSITIONING 1 (domain or fragment)
chain: ITATGDQSNESNESNEGKASENAATVTKMKLVDIEKRPPRVPRPPPRSAGGGKSTNLPSARPPLPGGGPPPPPPPPGGGPPPPPGGGPPPPPPPPGALGRGAGGGNKVHRAPELVEFYQSLMKRESKKEGAPSLISSGTGNSSAARNNMIGEIENRSTFLLAVKADVETQGDFVQSLATEVRASSFTDIEDLLAFVSWLDEELSFLVDERAVLKHFDWPEGKADALREAAFEYQDLMKLEKQVTSFVDDPNLSCEPALKKMYKLLEKVEQSVYALLRTRDMAISRYKEFGIPVDWLSDTGVVGKIKLSSVQLAKKYMKRVAYELDSVSGSDKDPNREFLLLQGVRFAFRVHQFAGGFDAESMKAFEELRSRAKTESGDNNNNNNNNSNEEESVN
What is called stoichiometry N is the number of molecules, sites or subunits per partner or assembly. As to B1, the “stoichiometry N” value in the series “SEC” came to 2.

B2: CHUP1_716-982, C-terminal fragment of CHUP1 (domain or fragment)
chain: NKVHRAPELVEFYQSLMKRESKKEGAPSLISSGTGNSSAARNNMIGEIENRSTFLLAVKADVETQGDFVQSLATEVRASSFTDIEDLLAFVSWLDEELSFLVDERAVLKHFDWPEGKADALREAAFEYQDLMKLEKQVTSFVDDPNLSCEPALKKMYKLLEKVEQSVYALLRTRDMAISRYKEFGIPVDWLSDTGVVGKIKLSSVQLAKKYMKRVAYELDSVSGSDKDPNREFLLLQGVRFAFRVHQFAGGFDAESMKAFEELRSRA
Regarding B2, the binding result in the series “crystal structure” was “binds”.
